# Laboratory results: patent publication US20220325265A1, “GLUCOCEREBROSIDASE MUTANTS” (Hoffmann-la Roche Inc., priority 2019, published 2022)
# Substitutions are numbered along the chain they refer to. Names and notes keep the numbering of the source.
# B1: R495HS2: hGCase based on the Cerezyme sequence (R495H) but produced in S2 cells, His8-tagged; Seq. Id. No. 1 (protein, listed as Homo sapiens)
# chain: ARPCIPKSFGYSSVVCVCNATYCDSFDPPTFPALGTFSRYESTRSGRRMELSMGPIQANHTGTGLLLTLQPEQKFQKVKGFGGAMTDAAALNILALSPPAQNLLLKSYFSEEGIGYNIIRVPMASCDFSIRTYTYADTPDDFQLHNFSLPEEDTKLKIPLIHRALQLAQRPVSLLASPWTSPTWLKTNGAVNGKGSLKGQPGDIYHQTWARYFVKFLDAYAEHKLQFWAVTAENEPSAGLLSGYPFQCLGFTPEHQRDFIARDLGPTLANSTHHNVRLLMLDDQRLLLPHWAKVVLTDPEAAKYVHGIAVHWYLDFLAPAKATLGETHRLFPNTMLFASEACVGSKFWEQSVRLGSWDRGMQYSHSIITNLLYHVVGWTDWNLALNPEGGPNWVRNFVDSPIIVDITKDTFYKQPMFYHLGHFSKFIPEGSQRVGLVASQKNDLDAVALMHPDGSAVVVVLNRSSKDVPLTIKDPAVGFLETISPGYSIHTYLWHRQ
# modifications: His8 tag
# B2: K321N/H145L: Amicus double mutant hGCase R495H/K321N/H145L produced in S2 cells; Seq. Id. No. 3 (protein, listed as Homo sapiens)
# chain: B1 chain with H145L, K321N
# notes: Amicus double mutant hGCase R495H/K321N/H145L produced in S2 cells; Id; No. 3
# B3: imiglucerase (protein, UniProt P04062 40-536, looked up, variant R495H)
# Lysosomal acid …: B1 chain
# modifications: imiglucerase; CHO-produced
# notes: Commercially available Cerezyme (imiglucerase, Genzyme), hGCase R495H produced in CHO cells
# B4: M53T/P55T: recombinant human β-glucocerebrosidase variant R495H/M53T/P55T, S2 cells; Seq. Id. No. 7 (protein, listed as Homo sapiens)
# chain: B1 chain with M53T, P55T
# notes: recombinant human β-glucocerebrosidase variant R495H/M53T/P55T, S2 cells; Id; No. 7
# B5: I5N: recombinant human β-glucocerebrosidase variant R495H/I5N, S2 cells; Seq. Id. No. 4 (protein, listed as Homo sapiens)
# chain: B1 chain with I5N
# notes: recombinant human β-glucocerebrosidase variant R495H/I5N, S2 cells; Id; No. 4
# Experiments:
# [1] = Activatability of hGCase mutants by phosphatidylserine; assay type: biochemical; settings: 25 nM protein; for phosphatidylserine activation, fold increase of initial activity: 4 μM phosphatidylserine, 10 min pre-incubation at RT
# Procedure: Negatively charged lipids as phosphatidylserine are known to stabilize and activate the enzyme usually in combination with Saposin C (SAP-2), since GCase is naturally interacting with the membrane of the lysosomes in vivo. For the assay, 25 nM protein and 4 μM phosphatidylserine (Avanti; 10 mM stock solution dissolved in chloroform) were tested.
# After adding the lipid to the enzyme, the solution was pre-incubated for 10 min at RT before adding the substrate and initializing the enzymatic reaction. The hGCase activity without added phosphatidylserine was set to 100% relative enzyme activity. The increase in activity was expressed as X-fold the initial activity without activator.
# Several physiological substances have been reported to stimulate the activity of glucocerebrosidase. GCase is naturally interacting with the membrane of the lysosomes in vivo, thus negatively charged lipids such as phosphatidylserine are known to stabilize and activate the enzyme alone or in combination with Saposin C (SAP-2) (Qi & Grabowski, 1998; Sun et al., 2002; Vaccaro et al., 1995). Thus, it is essential to preserve these properties when modifying the GCase enzyme structure. To this end, the effect of phosphatidylserine alone was evaluated as first approach. The activity levels with and without added phosphatidylserine are plotted in FIG. 6.
# By translating the data into fold increase of the initial activity, a more conclusive statement can be drawn (FIG. 7).
# [2] = system: H4 glioblastoma GBA-KO cells; experiment: Reduction of natural substrate GlcSph in H4 GBA-KO cells (LC/MS); assay type: cell-based, human; settings: 48 h, vs untreated H4 GBA-KO cells
# Procedure: FIG. 9: Reduction of the natural substrate GlcSph after treatment of H4 glioblastoma GBA-KO cells with hGCase molecules. Treatment concentration (hGCase protein): 1, 10 and 100 nM, respectively. Analysis of substrate levels after 48 h of incubation via LC/MS. H4 wt cells (GCase levels normalized to 100%) and H4 GBA-KO cells (loss of GBA gene) served as control. ^1 measured glucosylsphingosine (GlcSph) levels normalized to total protein amount. ^2 H4 glioblastoma cells with knock-out GBA gene.
# (§1) Human H4 glioblastoma cells (H4 cells) were taken as human neuronal model to test purified hGCase variants in a cell-based setup. H4 wild-type cells and untreated H4 GBA-KO cells (knock-out of related GCase GBA gene) were taken as references. After seeding (40000 cells/well) and incubating them for ˜24 h, the GBA-KO cells were treated with 1, 10 and 100 nM of target protein sample and incubated for either 2 h (for uptake and GCase activity measurements) or 48 h (for substrate reduction measurements) at 37° C. with 5% CO2 and constant humidity. After cell-lysis (GCase activity buffer (table 2.6)+0.1% (w/v) Triton X-100+phosphatase (Phospho stop Roche in-house)+protease inhibitor (cOmplete EDTA-free)), the uptake of the enzymes into the cells was evaluated by measuring the hGCase concentration via AlphaLISA (section 2.3.6) as well as the activity after the uptake (section 2.3.5). Samples for substrate reduction determination were hand over to Iris Ruf (SMR, see section 2.7). Due to the loss of the GCase related GBA gene in H4 GBA-KO cells, the natural substrate glucosylsphingosine (GlcSph) accumulates. The reduction of GlcSph levels due to hGCase treatment was evaluated via LC/MS by Iris Ruf (SMR).
# (§2) Finally, the cellular uptake, activity and substrate reduction in human neuronal cells were determined to test the mutants' efficacy in a more cellular context. In this work, human H4 glioblastoma wild-type cells (wt) and H4 GBA-KO cells (knock-out of GCase related GBA gene) were used as a Gaucher cell model. H4 GBA-KO cells, which accumulate the natural substrate glucosylsphingosine (GlcSph) due to the loss of the GBA gene, were treated with 1, 10 and 100 nM of hGCase molecules, respectively. Activity and protein concentration (via AlphaLISA) were measured after two hours of incubation after several media wash steps. The reduction of natural substrate GlcSph was analyzed 48 h after cell treatment via LC/MS. The activity measured after uptake into the cells normalized to measured hGCase protein levels is graphed in FIG. 8. The evaluated activities are given as percentage of hGCase activity measured in wt H4 cells, set to 100%.
# To determine the enzymes' efficacies, the reduction of accumulated glucosylsphingosine (GlcSph) in H4 GBA-KO cells was investigated.
# [3] = system: H4 glioblastoma GBA-KO cells; experiment: GCase activity after uptake into H4 GBA-KO cells, normalized to hGCase protein level; assay type: cell-based, human; settings: 2 h incubation
# Procedure: FIG. 8: Activity levels normalized to hGCase protein levels measured after treatment of H4 glioblastoma GBA-KO cells with hGCase molecules. Treatment concentration (hGCase protein): 1, 10 and 100 nM (100 nM not shown herein), respectively. Activity and protein amount measurement after 2 h of incubation. Activity measured with artificial substrate res-β-glc (20 μM); protein concentration determination via AlphaLISA (section 2.3.6). H4 wt cells (GCase levels normalized to 100%) and H4 GBA-KO cells (loss of GBA gene) served as control. ^1 GCase activity measured in H4 cells normalized to activity measured in H4 (wt) cells designated to 100% and normalized to protein amount. ^2 H4 glioblastoma cells with knock-out GBA gene.
# as §1
# as §2, with “H4 GBA-KO cells, which accumulate the natural substrate glucosylsphingosine (GlcSph) due to the loss of the GBA gene, were treated with 1, 10 and 100 nM of hGCase molecules, respectively.” left out
Molecule,"phosphatidylserine activation, fold increase of initial activity [1] [fold]",reduction in GlcSph levels (%) ([2]; 10 nM treatment),reduction in GlcSph levels (fold) ([2]; 10 nM treatment),GCase activity level normalized to H4 wt GCase activity (100%) and protein amount ([3]; 1 nM protein treatment) [%],GCase activity level normalized to H4 wt GCase activity (100%) and protein amount ([3]; 10 nM protein treatment) [%],reduction in GlcSph levels (%) ([2]; 1 nM treatment),basal activity level (no added lipid) ([1]; no phosphatidylserine)
B1,4.9,~75,4,–,–,–,–
B2,~2.8,–,–,–,–,–,–
B3,11.5,97,–,4,44,82,–
B4,6.5,~88,8.3,~4,26,–,–
B5,7.5,~75,4,–,–,–,least basal activity level
